This is an account of results in PMC5732184, “Arabidopsis Basic Helix-Loop-Helix 34 (bHLH34) Is Involved in Glucose Signaling through Binding to a GAGA Cis-Element”.

Series [1] addresses T1, His-bHLH34 (Arabidopsis thaliana) (UniProt Q9LTC7).
T1 sequence: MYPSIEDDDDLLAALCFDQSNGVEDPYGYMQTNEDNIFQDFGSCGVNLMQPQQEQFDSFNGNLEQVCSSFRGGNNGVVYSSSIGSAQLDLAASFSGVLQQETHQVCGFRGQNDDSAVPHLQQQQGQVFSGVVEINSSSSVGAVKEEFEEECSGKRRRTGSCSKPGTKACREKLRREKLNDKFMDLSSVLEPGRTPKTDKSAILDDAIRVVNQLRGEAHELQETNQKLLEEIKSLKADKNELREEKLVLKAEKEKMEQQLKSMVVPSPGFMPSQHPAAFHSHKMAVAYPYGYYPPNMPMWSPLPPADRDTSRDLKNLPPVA
Description: EMSA. Conditions: 10 mM Tris-HCl pH 7.5, 50 mM KCl, 1 mM EDTA, 1 mM DTT, 2.5% glycerol, 1 ug poly(dI-dC), 100 ng protein, 0.3 pmol DNA in 20 uL; 25 C 20 min; 5% native PAGE in ….

Series [2] concerns the target T2, His-bHLH34 (Arabidopsis thaliana, UniProt Q9LTC7 1-320).
T2 sequence: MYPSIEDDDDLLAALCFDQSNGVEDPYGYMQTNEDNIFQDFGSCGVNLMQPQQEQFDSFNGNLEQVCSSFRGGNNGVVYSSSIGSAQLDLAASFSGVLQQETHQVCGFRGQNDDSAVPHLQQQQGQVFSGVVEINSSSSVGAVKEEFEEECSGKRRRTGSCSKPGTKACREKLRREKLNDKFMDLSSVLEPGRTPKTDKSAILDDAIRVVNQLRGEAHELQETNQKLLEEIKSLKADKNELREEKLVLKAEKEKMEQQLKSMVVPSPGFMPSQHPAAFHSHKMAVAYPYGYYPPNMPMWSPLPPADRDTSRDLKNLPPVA
Description: EMSA; 10 mM Tris-HCl pH 7.5, 50 mM KCl, 1 mM EDTA, 1 mM DTT, 2.5% glycerol, 1 ug poly(dI-dC), 100 ng protein, 0.3 pmol DNA in 20 uL; 25 C 20 min; 5% native PAGE in TBE at 4 C. Conditions: protein: recombinant; tags: His tag (pET300/NT-DEST); chain copies: 2; label: 32P; blunt.

Series [3] concerns the target T2, His-bHLH34. Description: competition; 10-100x excess against 32P-DBE1; 10 mM Tris-HCl pH 7.5, 50 mM KCl, 1 mM EDTA, 1 mM DTT, 2.5% glycerol, 1 ug poly(dI-dC), 100 ng protein, 0.3 pmol DNA in 20 uL; 25 C 20 min; 5% native PAGE in TBE at 4 C. Conditions: protein: recombinant; tags: His tag (pET300/NT-DEST); chain copies: 2; blunt.

With “GTGATGGAGGTGTGACGCTAAGCCCTGAGCAGCACAAGGAGGTGGCACAAGTGGCCGGAGAGCTTCAAAAGTACTGTGTCAAGGAGCCTGTCAAAAATCCTCTCATTTTTGGAGGTAAAAGTGTAAGAACCTAGCTGCCA (double strand) [P2 fragment (-874 to -735)]”, the binding entry in series [1] was “binds”.
Turning to “AACCACGGACTCAGATCCATTCCTCGAGACGTTTGAATCTCCCTCTTCAATATTCAATCCCGTACAAGGTGTTACGGAGTAGGAGTAGAAGATTAGGACTCGTCGTCAGTTCTGTTTCAGCTCCCAACGTTGAGCTCCGT (double strand) [P4 fragment (-594 to -456)]”, the binding result in series [1] is listed as “binds”.
“TATTCGCAACCTATTCACAATTCACAAACTTTCAAATAAATGCGCCAAACTAAGTCAGATCCTCAAGATCGGTGTATACAAATCAGAAATCGTTACACAACCTTAGAGAGGAGGGTAGAAATGAGATCATCAGGTCCAGT (double strand) [P3 fragment (-734 to -595)]”: the binding entry in series [1] is listed as “binds”.
As to “GAAGAAGAGACGGCCTATCACGCTTCTGTAGCCTCCACCAGGAGAGGTTGGTCTAGAACAGTACACCACTTCCCAATCTGCACCAAATCCCACAAGTTCACATATTGATCCAAGGAAGAAGCAA (double strand) [P1 fragment (-999 to -875)]”, the binding entry in series [1] is given as “binds”.

B1: DBE1 m1 (dsDNA)
DNA 1: AGAATAGACGGC
DNA 2: GCCGTCTATTCT
Consider B1, for which the binding result in the series with His-bHLH34 [2] is “no binding”.

B2: DBE3 (dsDNA)
DNA 1: AAATGAGAGGAT
DNA 2: ATCCTCTCATTT
B2: the binding result in the series with His-bHLH34 [2] is given as “binds”.

B3: DBE5 (dsDNA)
DNA 1: AAATGAGATCAT
DNA 2: ATGATCTCATTT
In the case of B3, in the series with His-bHLH34 [2], the binding result is reported as “binds”.

B4: DBE6 (dsDNA)
DNA 1: GAGGGAGATTCA
DNA 2: TGAATCTCCCTC
Regarding B4, in the series with His-bHLH34 [2], the binding result was “binds”.

B5: E-box (dsDNA)
DNA 1: CCGGCCACTTGTGCCA
DNA 2: TGGCACAAGTGGCCGG
As for B5, the binding result in the series with His-bHLH34 [2] is “binds”.

B6: DBE1 unlabeled competitor (dsDNA)
DNA 1: AGAAGAGACGGC
DNA 2: GCCGTCTCTTCT
Consider B6, for which, in the series with His-bHLH34 [3], the binding result is “binds”.

B7: DBE2 (dsDNA)
DNA 1: CCAGGAGAGGTT
DNA 2: AACCTCTCCTGG
For B7, the binding result with His-bHLH34 [2] was “binds”.

B8: DBE1 m2 (dsDNA)
DNA 1: AGAAGTGACGGC
DNA 2: GCCGTCACTTCT
In the case of B8, the binding result with His-bHLH34 [2] is on record as “no binding”.

B9: DBE1 (dsDNA)
DNA 1: AGAAGAGACGGC
DNA 2: GCCGTCTCTTCT
For the molecule B9, the binding result in the series with His-bHLH34 [2] is listed as “binds”.

B10: DBE1 m3 (dsDNA)
DNA 1: AGAAGATACGGC
DNA 2: GCCGTATCTTCT
Turning to B10, the binding result with His-bHLH34 [2] is “no binding”.

B11: DBE4 (dsDNA)
DNA 1: CTTAGAGAGGAG
DNA 2: CTCCTCTCTAAG
With B11, the binding result in the series with His-bHLH34 [2] is “binds”.

B12: DBE1 m4 (dsDNA)
DNA 1: AGAAGAGTCGGC
DNA 2: GCCGACTCTTCT
Regarding B12, the binding result with His-bHLH34 [2] is “no binding”.
